{"source": "patent US20230272088A1", "about": "(SYNTHEKINE, published 2023)", "binders": {"B1": {"name": "DR919 (VHH)", "VHH": "EVQLVESGGGLVQPGGFLRLSCAASRRTLSTYAMGWFRQAPGKEREFVAAISWRSGNTYYADSVKGRFTISRDNAKNTMYLQMNSLKPEDTAVYYCAANEVATMSGPHDHWGQGTLVTVSS", "notes": "also called anti-IFNGR1 sdAb VHH DR919"}, "B2": {"name": "DR904 (VHH)", "VHH": "EVQLVESGGGLVQAGGSLRLSCEASESILSINTMGWFRQAPGKQRELVAAISSGGSTNYADSVKGRFTISRDNAKNTVYLQMNSLKPEDTAVYYCDADRAYYKGQGTQVTVSS", "notes": "also called anti-IFNGR1 sdAb VHH DR904"}, "B3": {"name": "DR921 (VHH)", "VHH": "QVQLVESGGGLVQAGDSLRLSCAASGRTFTFSTHNMGWFRQAPGKEREFVGGIMWTSRASYADSVKGRFTVSRDNAKNTVYLQMNSLKPEDTAVYYCAAAWYGNSGASYDYWGQGTQVTVSS", "notes": "also called anti-IFNGR1 sdAb VHH DR921"}, "B4": {"name": "DR940 (VHH)", "VHH": "EVQLVESGGRLVQTGGSLRLSCAASGRTFSNYAMGWFRQAPGKEREFVAAISWYSGNTYYADSVKGRFTISRDNAKNTMYLQMNSLKPEDTAVYYCAANQIATMISVGDYWGQGTLVTVSS", "notes": "also called anti-IFNGR2 sdAb VHH DR940"}, "B5": {"name": "DR930 (VHH)", "VHH": "EVQLVESGGGLVQAGGSLRLSCTVSGRTFSSYAVAWFRQAPGNVRELAAALSRGGGSAYYTDSVKGRFTISRDNAKNTVYLQMNSLKPEDTAVYYCAARNYDGTYYQENQYNYWGQGTQVTVSS", "notes": "also called anti-IFNGR2 sdAb VHH DR930"}, "B6": {"name": "DR929 (VHH)", "VHH": "QVQLVESGGGLVQAGGSLRLSCVASGRTFSSYAMGWFRQTPGKEREFVSAISRGGGSTDYADSVKGRFTISRDNAKNTVYLQMNNLKSEDTAVYYCALRAYSGRYYQFLEYDYWGQGTQVTVSS", "notes": "also called anti-IFNGR2 sdAb VHH DR929"}, "B7": {"name": "DR951 (VHH)", "VHH": "QVQLVESGGGLVQAGGSLRLSCAASGRTFGTSFGSLSMGWFRQAPGKEREFVAAISRNIGRTYYADSVKDRFTISRDNAKNTASLQMNSLEPEDTAVYNCAATNSYDDLRRSYAYDYWGQGTQVTVSS", "notes": "also called anti-IFNGR2 sdAb VHH DR951"}, "B8": {"name": "DR935 (VHH)", "VHH": "QVQLVESGGGLVQAGGSLRLSCAASGRAFSTYALGWFRQAPGKEREFIAAISRGGGSTDYADSVKGRFTISRDNAKSTVYLQMNSLKPEDTAVYYCAARSYSSSYYYSQYEYDYWGQGTQVTVSS", "notes": "also called anti-IFNGR2 sdAb VHH DR935"}, "B9": {"name": "DR931 (VHH)", "VHH": "QVQLVESGGGLVQAGGSLLLSCAASGRTFSTYAMGWFRQAPGKERMFVAAISVNGGSTYYADSVTGRFTISRDNAKNTMYLQMNNLKPGDTAVYYCAARRPYPGSDFLTWASYDYRGQGTLVTVSS", "notes": "also called anti-IFNGR2 sdAb VHH DR931"}, "B10": {"name": "DR949 (VHH)", "VHH": "QVQLVESGGGLVQAGGSLRLSCAASESILRFNVMSWLRQAPGKQRELVAVITSGGSTNYADSVKGRFTISRDNAKNTVYLQMNSLKPEDTAVYYCAADESGQYYWGQGTQVTVSS", "notes": "also called anti-IFNGR2 sdAb VHH DR949"}, "B11": {"name": "DR946 (VHH)", "VHH": "QVQLVESGGGLVQPGESLRLSCAASGPFTRYAMGWFRQAPGKEREFVAAISWSSGNTYYVDSVKGRFTISRDNAKNTMYLQMNSLKPEDTAVYYCAANEVATMSGPDDYWGQGTQVTVSS", "notes": "also called anti-IFNGR2 sdAb VHH DR946"}, "B12": {"name": "DR950 (VHH)", "VHH": "QVQLVESGGGLVQAGGSLRLSCAASGLTTSSAALAWFRQAPGKERELDPTITSGGGSTYYADSVKGRFTISKDNAKNTLYLQMSSLKPEDTAVYYCAARFYSTTYYYREHEYSDWGQGTQVTVSS", "notes": "also called anti-IFNGR2 sdAb VHH DR950"}, "B13": {"name": "DR948 (VHH)", "VHH": "QVQLVESGGGLVQAGDSLRLSCVASGSIDSSYYVSWFRQAPGKERDLVAAINWGDSRTAYADSVKGRFTISRDNAKNTVYLQMHSLRPNDTAVYYCASRIGLGGPVVAAPTRYPYWGQGTLVTVSS", "notes": "also called anti-IFNGR2 sdAb VHH DR948"}, "B14": {"name": "DR928 (VHH)", "VHH": "QVQLVESGGGLVQAGGSLRLSCAASGRTFSNYRMGWFRQAPGKEREFVAAISRGGGTTLYADSVKGRFTISRDNAKNTVDLQMNRLKPEDTAVYFCAAGDFSTTWDEYNYWGQGTQVTVSS", "notes": "also called anti-IFNGR2 sdAb VHH DR928"}, "B15": {"name": "DR934 (VHH)", "VHH": "QVQLVESGGGLVQAGGSLRLSCAASGRSFANYAMGWFRQAPGKERETVAAISRGGGSTWYADSVKGRFTISKDNAKNTVYLQMNSLKPEDTAIYYCAARSYSGSYTYSFGEYDYWGQGTQVTVSS", "notes": "also called anti-IFNGR2 sdAb VHH DR934"}, "B16": {"name": "DR933 (VHH)", "VHH": "QVQLVESGGGLVQPGDSLRLSCVASGGTISSLAMGWFRQAPGKEREFVAAISWSGRSTYYVDSVKGRFTISTDNAKNTVYLQMNSLKPEDTAVYYCVAGEDGHSEYDYWGQGTQVTVSS", "notes": "also called anti-IFNGR2 sdAb VHH DR933"}, "B17": {"name": "DR947 (VHH)", "VHH": "QVQLVESGGGLVQAGGSLRLSCAASGGSFGRYTMGWYRQAPGKEREFVAVISWSGTNTYYADSVKGRFTISRDNAKNTMYLQMNDLKPEDTAVYYCAARETYYSHWDERMEYDYWGQGTQVTVSS", "notes": "also called anti-IFNGR2 sdAb VHH DR947"}, "B18": {"name": "DR932 (VHH)", "VHH": "QVQLVESGGGLVQAGGFLRLSCAASGRTFSYTTIGWFRQAPGKEREFVAVISAGGGSRDYADALKGRFTISRDNAKKMVYLQMNNLKPEDTAVYYCAVRRNTDTYTTTGDYDYWGQGTQVTVSS", "notes": "also called anti-IFNGR2 sdAb VHH DR932"}, "B19": {"name": "DR938 (VHH)", "VHH": "QVQLVESGGGLVQPGGSLRLSCTASGRPRTTYAMGWFRQAPGKEREIVAAISKAGGSTYVADSAKGRFAISKDNAKNTVYLQMNSLKPEDTAVYYCAARAGFAAQIFEYDYWGQGTLVTVSS", "notes": "also called anti-IFNGR2 sdAb VHH DR938"}, "B20": {"name": "DR939 (VHH)", "VHH": "EVQLVESGGGLVQAGGSMRLSCANSGRTFGTYAMGWFRQSPGKERERVASIDRDGSMSYYADSVKGRFTISGDNAKNTVYLQMNSLKPEDTAVYYCAASRRAVISLQTVDYWGQGTQVTVSS", "notes": "also called anti-IFNGR2 sdAb VHH DR939"}, "B21": {"name": "DR941 (VHH)", "VHH": "QVQLVESGGGLVEAGGSLRLACAASGSIFRLNLMGWYRQAPGKQRELVAHVGTTGNTAYADSVKGRFTISKDDAKNMVFLQMNSLKPEDTAVYYCYADRWGQFSWGQGTQVTVSS", "notes": "also called anti-IFNGR2 sdAb VHH DR941"}, "B22": {"name": "DR943 (VHH)", "VHH": "QVQLVESGGGLVQAGGSLRLSCVASGRTVGYGMAWFRQAPGKQRDVVAAITWSGTSTYYPDSVKGRFTISRDNAKNTMYLQMSSLKPEDTAVYYCAAGSRRRVGVDVGGYDYWGQGTQVTVSS", "notes": "also called anti-IFNGR2 sdAb VHH DR943"}, "B23": {"name": "DR936 (VHH)", "VHH": "EVQLVESGGGLVQAGGSLRLSCAASGRTFSSVAMAWFRQAPGKEREFVSAISSGGGSTDYADSVKGRFTISKDNAKNTMYLQMDSLKPEDTAVYYCAARDYSSRRYYQSRYEYDLWGLGTQVTVSS", "notes": "also called anti-IFNGR2 sdAb VHH DR936"}, "B24": {"name": "DR927 (VHH)", "VHH": "QVQLVESGGGLVQAGGSLRLSCAASGRTFTSYAMNWFRQAPGKEREFVAAISWSSGNTYVADSVKGRFAISRDKAKNTMYLQMNSLAPEDTAVYYCAATTIATMSDEYTYWGQGTQVTVSS", "notes": "also called anti-IFNGR2 sdAb VHH DR927"}, "B25": {"name": "DR937 (VHH)", "VHH": "QVQLVESGGGLVQPGGSLRLSCAASGRTFRSYSMGWFRQAPGKEREFVAAISWYSGTTYYADPVKGRFTISRDDAKNTLYLQMNSLKPEDTAVYYCAANEIATMESSNDYWGQGTQVTVSS", "notes": "also called anti-IFNGR2 sdAb VHH DR937"}, "B26": {"name": "DR952 (VHH)", "VHH": "QVQLVESGGGLVQAGGFLRLSCAASGRTFSSLAMAWFRQAPGKEREFVAAISRSGGSTDYADSVKGRFTISRDNAKSTLYLQMSSLKPEDTAVYYCAARDYSTLQYYNEYEYSDWGQGTLVTVSS", "notes": "also called anti-IFNGR2 sdAb VHH DR952"}}}
{"molecular_target": "T1, extracellular domain of hIFNGR1 (human, UniProt P15260 18-245, conjugated to Alexa647 (site not stated))", "T1 construct": "UniProt P15260 residues 18-245; also called hIFNGR1-ECD; human IFNGR1 ECD", "T1 sequence": "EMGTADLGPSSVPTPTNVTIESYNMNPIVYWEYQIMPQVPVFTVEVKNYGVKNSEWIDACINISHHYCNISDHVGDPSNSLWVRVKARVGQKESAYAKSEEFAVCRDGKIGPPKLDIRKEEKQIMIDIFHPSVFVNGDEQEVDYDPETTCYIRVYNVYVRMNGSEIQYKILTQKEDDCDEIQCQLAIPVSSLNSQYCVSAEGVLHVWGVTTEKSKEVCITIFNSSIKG", "assay": "flow cytometry, yeast-displayed VHH, 100 nM Alexa647-conjugated antigen", "experimental": "(§1) Binding of individual VHH to human and murine antigen was tested by flow cytometry. Briefly, 2E5 yeast cells expressing a single sdAb clone were added to each well of a 96 well plate. The first plate was incubated with 100 nM of human antigen conjugated to Alexa647 whereas the second plate was incubated with 100 nM of murine antigen conjugated to Alexa647. Yeast cells were washed 3 times with PBS containing 1% bovine serum albumin. Yeast cells were analyzed using flow cytometry and clones showing a mean fluorescence intensity of greater than 1000 were considered as binding molecules. Specificity of sdAbs was confirmed by incubating yeast cells with a irrelevant protein conjugated to Alexa647. Positive clones were sequenced, and sequences analyzed to identify unique clonotypes."}
{"binder": "B1", "binding result": "binds"}
{"binder": "B2", "binding result": "binds"}
{"binder": "B3", "binding result": "binds"}
{"molecular_target": "T2, extracellular domain of hIFNGR2 (human, UniProt P38484 28-247, conjugated to Alexa647 (site not stated))", "T2 construct": "also called hIFNGR2-ECD; human IFNGR2 ECD", "T2 sequence": "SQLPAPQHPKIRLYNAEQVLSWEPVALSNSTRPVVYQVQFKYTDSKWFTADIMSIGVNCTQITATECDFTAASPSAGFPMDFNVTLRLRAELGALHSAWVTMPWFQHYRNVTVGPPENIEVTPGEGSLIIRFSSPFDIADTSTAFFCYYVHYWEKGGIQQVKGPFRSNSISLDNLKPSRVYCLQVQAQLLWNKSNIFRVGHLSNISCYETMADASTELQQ", "assay": "flow cytometry, yeast-displayed VHH, 100 nM Alexa647-conjugated antigen", "experimental": "as §1"}
{"binder": "B4", "binding result": "binds"}
{"binder": "B5", "binding result": "binds"}
{"binder": "B6", "binding result": "binds"}
{"binder": "B7", "binding result": "binds"}
{"binder": "B8", "binding result": "binds"}
{"binder": "B9", "binding result": "binds"}
{"binder": "B10", "binding result": "binds"}
{"binder": "B11", "binding result": "binds"}
{"binder": "B12", "binding result": "binds"}
{"binder": "B13", "binding result": "binds"}
{"binder": "B14", "binding result": "binds"}
{"binder": "B15", "binding result": "binds"}
{"binder": "B16", "binding result": "binds"}
{"binder": "B17", "binding result": "binds"}
{"binder": "B18", "binding result": "binds"}
{"binder": "B19", "binding result": "binds"}
{"binder": "B20", "binding result": "binds"}
{"binder": "B21", "binding result": "binds"}
{"binder": "B22", "binding result": "binds"}
{"binder": "B23", "binding result": "binds"}
{"binder": "B24", "binding result": "binds"}
{"binder": "B25", "binding result": "binds"}
{"binder": "B26", "binding result": "binds"}
